Experimental data: US20200157519A1 (IMMUNWORK, published 2020)

Assays:
[1] = target: T1, human fibrin (human fibrinogen coated on the plate and treated with thrombin) (human, UniProt P02671 36-629; P02675 45-491; P02679 27-437); test: ELISA after storage at 4 C for 3 or 6 days, HRP-protein L
T1 construct: Made on the plate: coated human fibrinogen (Sigma) treated with 1.0 U/mL thrombin, CaCl2 and L-cysteine
T1 sequence (looked up) 1: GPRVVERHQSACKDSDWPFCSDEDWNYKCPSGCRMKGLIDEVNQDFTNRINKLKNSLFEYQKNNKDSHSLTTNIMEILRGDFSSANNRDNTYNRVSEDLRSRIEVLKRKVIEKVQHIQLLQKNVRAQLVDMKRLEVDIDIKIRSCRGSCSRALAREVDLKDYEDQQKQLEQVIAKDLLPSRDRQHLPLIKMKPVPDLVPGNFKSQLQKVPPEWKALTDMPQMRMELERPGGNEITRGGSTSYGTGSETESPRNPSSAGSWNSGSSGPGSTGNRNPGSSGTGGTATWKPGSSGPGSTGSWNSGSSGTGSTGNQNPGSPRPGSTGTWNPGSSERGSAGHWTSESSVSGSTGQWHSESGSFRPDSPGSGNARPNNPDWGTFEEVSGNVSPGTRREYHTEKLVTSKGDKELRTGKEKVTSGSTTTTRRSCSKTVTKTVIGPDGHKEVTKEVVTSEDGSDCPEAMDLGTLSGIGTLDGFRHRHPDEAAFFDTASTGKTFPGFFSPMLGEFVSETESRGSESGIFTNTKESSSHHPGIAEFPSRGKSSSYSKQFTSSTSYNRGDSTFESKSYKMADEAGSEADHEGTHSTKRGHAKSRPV
T1 sequence (looked up) 2: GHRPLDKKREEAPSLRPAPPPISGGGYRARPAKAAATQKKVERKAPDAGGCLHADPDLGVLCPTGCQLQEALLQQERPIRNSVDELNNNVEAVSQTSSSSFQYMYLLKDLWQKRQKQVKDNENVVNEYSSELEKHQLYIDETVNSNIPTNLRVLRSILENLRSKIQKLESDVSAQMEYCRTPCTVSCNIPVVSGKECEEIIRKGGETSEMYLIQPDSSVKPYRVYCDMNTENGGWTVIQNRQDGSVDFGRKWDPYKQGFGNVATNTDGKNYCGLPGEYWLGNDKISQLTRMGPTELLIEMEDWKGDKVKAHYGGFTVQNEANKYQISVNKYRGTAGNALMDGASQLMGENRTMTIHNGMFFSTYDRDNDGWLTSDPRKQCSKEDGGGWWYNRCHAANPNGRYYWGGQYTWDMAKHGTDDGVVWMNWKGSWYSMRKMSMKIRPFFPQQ
T1 sequence (looked up) 3: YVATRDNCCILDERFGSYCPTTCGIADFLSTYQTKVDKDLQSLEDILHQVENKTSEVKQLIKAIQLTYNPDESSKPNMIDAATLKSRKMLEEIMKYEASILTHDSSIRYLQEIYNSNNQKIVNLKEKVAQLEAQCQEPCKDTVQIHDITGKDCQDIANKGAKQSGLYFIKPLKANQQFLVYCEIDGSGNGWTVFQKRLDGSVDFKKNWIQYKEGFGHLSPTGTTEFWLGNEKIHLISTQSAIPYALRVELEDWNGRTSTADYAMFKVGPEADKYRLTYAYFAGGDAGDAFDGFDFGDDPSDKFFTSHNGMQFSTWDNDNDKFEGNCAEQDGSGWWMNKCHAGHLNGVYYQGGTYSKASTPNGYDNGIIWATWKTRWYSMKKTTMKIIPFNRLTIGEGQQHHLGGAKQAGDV
Procedure: (§1) To evaluate the stability of reteplase-(3D5 scFv) after storage, the reteplase-(3D5 scFv) was stored at 4° C. for 3, 6 and 30 days, and then SDS-PAGE and ELISA analysis were performed.
(§2) 96-well polystyrene microplates were coated with human fibrinogen (Sigma) (20 μg/mL) in PBS buffer (100 μL/well). After overnight incubation at 4° C., the coated wells were washed with PBS buffer. To induce the cross-linking of human fibrin, coated wells was incubated at 37° C. for 1 hour with human α-thrombin (Sigma) at a final concentration of 1 U/mL in TBS buffer with 2 mM CaCl₂ and 7 mM L-cystine (Merck). After blocking the wells with a blocking buffer (5% non-fat dry milk/PBS), 100 μL of reteplase-(3D5-scFv) at a final concentration of 0.1, 1 and 10 μg/mL were added to each well and incubate at room temperature for 1 hour. Thereafter, the plates were washed three times, and HRP-conjugated protein L diluted to 1/5000 was added to the wells and incubated for 1 hour at room temperature. The wells were washed three times and added with 100 μL of 3,3′,5,5′-Tetramethylbenzidine (TMB) substrate buffer. 5 minutes later, the color development was stopped with 1 M HCl. The optical density (OD) was measured at 450 nm using a microplate reader (Molecular Devices) and the data were processed using Graph Pad Prism software. […]

[2] = target: T2, crosslinked human fibrin treated by human factor XIIIa (human, UniProt P02671 36-629; P02675 45-491; P02679 27-437, crosslinked by factor XIIIa); test: as above
T2 construct: Coated human fibrinogen treated with thrombin and 0.55 ug factor XIIIa (Zedira) per well; also called crosslinked fibrin
T2 sequence (looked up) 1: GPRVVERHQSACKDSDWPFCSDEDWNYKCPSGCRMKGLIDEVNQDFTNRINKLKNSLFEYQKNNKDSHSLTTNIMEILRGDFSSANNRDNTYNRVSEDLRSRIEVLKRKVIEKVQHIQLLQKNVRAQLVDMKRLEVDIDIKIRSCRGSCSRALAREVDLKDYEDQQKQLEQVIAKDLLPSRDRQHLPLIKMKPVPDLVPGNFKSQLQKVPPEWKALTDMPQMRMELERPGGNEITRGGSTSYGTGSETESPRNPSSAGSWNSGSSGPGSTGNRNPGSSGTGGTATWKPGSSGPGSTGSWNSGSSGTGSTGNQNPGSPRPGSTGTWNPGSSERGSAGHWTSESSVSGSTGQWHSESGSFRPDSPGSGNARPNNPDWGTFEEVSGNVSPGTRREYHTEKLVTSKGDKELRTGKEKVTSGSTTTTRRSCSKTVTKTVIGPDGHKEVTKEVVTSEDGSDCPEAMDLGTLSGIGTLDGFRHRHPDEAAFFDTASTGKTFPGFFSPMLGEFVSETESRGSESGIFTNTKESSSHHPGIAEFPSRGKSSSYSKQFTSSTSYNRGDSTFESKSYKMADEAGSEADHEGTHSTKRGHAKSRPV
T2 sequence (looked up) 2: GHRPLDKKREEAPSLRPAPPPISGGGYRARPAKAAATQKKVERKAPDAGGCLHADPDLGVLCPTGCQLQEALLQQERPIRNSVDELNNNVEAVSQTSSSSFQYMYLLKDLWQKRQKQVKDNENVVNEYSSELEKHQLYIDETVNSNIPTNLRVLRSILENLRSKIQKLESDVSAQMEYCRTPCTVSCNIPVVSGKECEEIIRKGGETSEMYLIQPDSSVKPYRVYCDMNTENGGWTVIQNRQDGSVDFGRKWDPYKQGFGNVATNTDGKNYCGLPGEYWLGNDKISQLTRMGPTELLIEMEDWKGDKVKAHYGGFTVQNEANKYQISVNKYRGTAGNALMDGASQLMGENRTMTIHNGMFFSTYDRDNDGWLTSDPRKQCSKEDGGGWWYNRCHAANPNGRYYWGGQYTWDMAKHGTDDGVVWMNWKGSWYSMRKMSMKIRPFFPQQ
T2 sequence (looked up) 3: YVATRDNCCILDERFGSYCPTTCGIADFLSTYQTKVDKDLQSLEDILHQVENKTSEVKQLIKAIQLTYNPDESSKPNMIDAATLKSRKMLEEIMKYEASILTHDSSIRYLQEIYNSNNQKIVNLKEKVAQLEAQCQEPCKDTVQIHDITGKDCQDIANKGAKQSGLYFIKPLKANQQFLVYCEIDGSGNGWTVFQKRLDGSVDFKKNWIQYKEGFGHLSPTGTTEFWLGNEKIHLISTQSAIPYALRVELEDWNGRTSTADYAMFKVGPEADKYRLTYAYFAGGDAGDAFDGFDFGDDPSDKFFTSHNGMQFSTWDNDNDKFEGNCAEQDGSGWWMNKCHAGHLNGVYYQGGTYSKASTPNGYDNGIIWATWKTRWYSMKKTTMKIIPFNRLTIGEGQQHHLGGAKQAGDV
Procedure: as §1, §2

binding result [1]: binds
binding result [2]: binds
B1: recombinant reteplase-(3D5 VL-218-VH scFv α fibrin) protein (other)
chain: SYQGNSDCYFGNGSAYRGTHSLTESGASCLPWNSMILIGKVYTAQNPSAQALGLGKHNYCRNPDGDAKPWCHVLKNRRLTWEYCDVPSCSTCGLRQYSQPQFRIKGGLFADIASHPWQAAIFAKHRRSPGERFLCGGILISSCWILSAAHCFQERFPPHHLTVILGRTYRVVPGEEEQKFEVEKYIVHKEFDDDTYDNDIALLQLKSDSSRCAQESSVVRTVCLPPADLQLPDWTECELSGYGKHEALSPFYSERLKEAHVRLYPSSRCTSQHLLNRTVTDNMLCAGDTRSGGPQANLHDACQGDSGGPLVCLNDGRMTLVGIISWGLGCGQKDVPGVYTKVTNYLDWIRDNMRPASGGGGSGGGGSGGGGSDIQMTQSPSSLSASVGDRVTITCRASQDVSNNVAWYQQKPGKAPKLLIFWSPWLYSGVPSRFSGSGSGTDFTLTISSLQPEDFATYYCQQGWDSPVTFGQGTKVEIKRGSTSGSGKPGSGEGSTKGEVQLVESGGGLVQPGGSLRLSCAASGFTISDFGIHWVRQAPGKGLEWVASIWPSGGYTYYADSVKGRFTISADTSKNTAYLQMNSLRAEDTAVYYCARSWFYSWYDYWGQGTLVTVSS
notes: Fusion: reteplase, flexible linker, 3D5 VL, 218 linker, 3D5 VH; also called reteplase-(3D5 scFv); reteplase-(3D5-scFv)
